From patent publication US9962427B2, “Treatment of right ventricular dysfunction due to pressure overload” (OTTAWA HOSPITAL RESEARCH INSTITUTE, priority 2016, dated 2018)

Tests used:
Fischer CDF rats = assay: SU5416/hypoxia model of severe pulmonary hypertension, weekly echocardiography and hemodynamics; format: in vivo, rat
Procedure: FIGS. 5A and 5B. Human Cardiotrophin-1 (hCT1) improves RV adaptation to severe Pulmonary Hypertension (PH) in Fischer rats.
Given that CT-1 induces phenotypic characteristics associated with beneficial RV physiologic adaptive compensation, a prediction was made by the Applicants that CT-1 would enhance RV adaptation to increased afterload in a disease setting. This supposition was tested to examine whether CT-1 protein can improve the ability of the RV to functionally adapt and limit or reduce right heart failure that is associated with pulmonary arterial hypertension (PAH), a form of PH caused by abnormalities in the lung vasculature (FIGS. 5A and 5B). PAH has a highly tractable and reproducible rodent equivalent, the […]/hypoxia rat model, which recapitulates many key aspects of the disease including progressive right heart failure in the Fischer CDF™ rat strain, a feature that is not observed in the Sprague Dawley strain in the same model of PH. Use of this PH model offers a clear advantage in providing an accurate preclinical disease setting to test the utility of CT-1, rather than simply testing co-administration of CT-1 with general […] stimulants such as PE or ISO in vivo. […] Also, right heart failure drives symptoms and prognosis in many forms of PH, including in Group 2 PH caused by increases in left ventricular filling pressures, of which heart failure with preserved ejection fraction (HFpEF) is an important example which is increasingly recognized as one of the greatest therapeutic challenges in clinical cardiology today. PH was induced by administering a single subcutaneous injection of SU5416 (20 mg/kg) to Fischer CDF™ rats followed by exposure to chronic hypoxia (8-10% O2) for 3 weeks. After these 3 weeks, rats were recovered for 24 hours in normoxia before implantation of PBS filled (control) or hCT-1 filled (6 μg/kg/hr delivery) osmotic minipumps. Control rats were exposed to normoxic conditions throughout the study and only treated with PBS (FIG. 5A). Echocardiography analyses were conducted weekly and the following parameters were measured: Right Ventricle Posterior Wall thickness (RVPW), Ratio of Right Ventricle Internal Diameter to Left Ventricle Internal (RVID/LVID), Pulmonary Artery Acceleration Time (PAAT), Fractional Area Change (FAC), and Cardiac Output (CO). At 3 weeks (prior to pump implantation), there was already a marked and significant increase in the RVID/LVID ratio, indicative of developing RV failure in this model of severe PH. In PH animals receiving saline, there was a progressive increase in this ratio over the subsequent 3 weeks, associated with other evidence of progressive RV failure, such as worsening contractile function (Fractional Area Shortening) and reductions in cardiac output.

P19 cells = assay: P19 cardiac differentiation (cTnT immunofluorescence, beating clusters, immunoblot); format: cell-based, mouse
Procedure: FIG. 9A Schematic for cardiac differentiation of pluripotent P19 cells. FIG. 9B Immunofluorescence results for the cardiac-specific marker Troponin T (cTnT) in P19 cardiac cells at day 7 of differentiation in the presence of varying doses of hCT1 ranging from 0-500 ng/mL (0-25 nM). Quantification of expression of cTnT is shown on the graph. FIG. 9C Quantification of beating clusters in P19 cardiac cells at day 13-15 of differentiation in the presence of varying doses of hCT1. FIG. 9D Immunoblot for the cardiac markers cTnT and GATA4 in whole cell lysates from a P19 cardiac differentiation timecourse in the presence and absence of hCT1.
Protection during conditions of cardiac pathologies can be conferred not only by the activation of pro-survival/pro-angiogenic signaling pathways but also by inducing the differentiation of cardiogenic progenitor cells. […] To test the effect of CT1 on cardiomyocyte differentiation, undifferentiated cells were induced to undergo cardiac differentiation with 0.8% DMSO and aggregation. At day 0, P19 cells are plated onto non-adherent bacterial petri dishes in the presence of MEMα growth media with 0.8% DMSO (control) or in the presence of different doses of hCT1-containing MEMα media ranging from 0.5 nM (10 ng/mL) to 25 nM (500 ng/mL) with 0.8% DMSO. P19 cells are then allowed to aggregate for 4 days. Finally, aggregates are then transferred onto adherent tissue culture dishes in the same media (this time in the absence of DMSO) to allow for subsequent cardiac differentiation (FIG. 9A, adapted from Skerjanc et al. 1999; Trends in Cardiovascular Medicine, volume 9, pages 139-143). The cardiac specific marker Troponin T (cTnT) was used (by immunofluorescence) to identify differentiated cells.
Differentiation was also followed up to day 15 and the number of visually beating clusters was used to assess cardiac differentiation. […]

primary cardiomyocytes = assay: Microarray gene expression analysis of primary cardiomyocytes (Affymetrix Rat gene 2.0ST array); format: cell-based; settings: 0.5 nM, 24 hours, versus non-stimulated
Procedure: FIGS. 8A and 8B. […] FIG. 8B Microarray analysis of primary cardiomyocytes stimulated with hCT1 (0.5 nM) for 24 hours.
Applicant explored the role of CT-1 as a pro-angiogenic factor in the adaptive hypertrophic response. Physiologic cardiac adaptive compensation is associated with an increase in capillary density, whereas pathologic response is characterized by a decline or no change at all. Importantly, the compensatory vascular growth/angiogenesis that occurs during physiologic adaptive compensation is permissive for the increased workload that accompanies physiologic adaptive compensation. Despite this adaptation, little information exists regarding the mechanisms that match the demand for angiogenesis to the beneficial form of myocardial growth. The rapid in vitro and in vivo adaptive compensation in response to CT-1 supports a hypothesis that the cardiomyocyte itself may act in a paracrine fashion, to signal and promote angiogenesis. To address this conjecture, Applicant examined whether CT-1 treated primary cardiomyocytes produced vascular endothelial growth factor (VEGF), an angiogenic factor known to be produced and secreted by cardiomyocytes. Primary cardiomyocytes were incubated with control serum-free media (Ctrl, SF media) or stimulated with hCT1 (0.5 nM), PE (100 μM), or PAC-1 (25 μM) for 24 hours. […]

[1] = hCT-1 6 μg/kg/hr minipump from week 3
[2] = hCT-1 6 μg/kg/hr minipump from week 3, over 3 weeks

B1: hCT1: Recombinant human CT1 protein; 201 amino acid sequence, GenBank Accession Nos AAD12173 and AAA85229 (human) (protein, UniProt Q16619 1-201, looked up)
Cardiotrophin-1: MSRREGSLEDPQTDSSVSLLPHLEAKIRQTHSLAHLLTKYAEQLLQEYVQLQGDPFGLPSFSPPRLPVAGLSAPAPSHAGLPVHERLRLDAAALAALPPLLDAVCRRQAELNPRAPRLLRRLEDAARQARALGAAVEALLAALGAANRGPRAEPPAATASAASATGVFPAKVLGLRVCGLYREWLSRTEGDLGQLLPGGSA
Question: B1 was tested. Which “RV afterload (right ventricular systolic pressure, RVSP)” value (Fischer CDF rats; [1]) did it give?
Answer: without any alteration in the RV afterload

Question: What about the “right atrial pressure (RAP)” value (Fischer CDF rats; [1]) of the same molecule?
Answer: significant decrease in right atrial pressure

Question: What about the RVID/LVID ratio (Fischer CDF rats; [2]) of the same molecule?
Answer: progressive improvement in the RVID/LVID ratio

Question: What about the cardiac output (Fischer CDF rats; [2]) of the same molecule?
Answer: improvements

Question: What about the contractile function (Fischer CDF rats; [2]) of the same molecule?
Answer: improvements in contractile function

Question: What about the “GATA4 and cTnT expression (immunoblot)” value (P19 cells; 10 ng/mL (0.5 nM) hCT1, days 5 and 7) of the same molecule?
Answer: significantly inhibited GATA4 and cTnT expression

Question: And the “differentiation of cardiac cells (cTnT+/DAPI+)” value (P19 cells; day 7, any dose 0.5 nM to 25 nM)?
Answer: significantly inhibited the differentiation of cardiac cells

Question: And the “number of beating clusters” value (P19 cells; days 13, 14, and 15)?
Answer: no beating clusters were detected

Question: What about the “VEGF increase (microarray)” value (primary cardiomyocytes) of the same molecule?
Answer: 1.3 fold

Question: What about the “angiogenic and endothelial factors (Angpt14, Flt4, Vwa5a) expression” value (primary cardiomyocytes) of the same molecule?
Answer: robust induction
